The DeepSol protein solubility set

Experiment: soluble on expression in E. coli; label from the status in PepcDB or PDB records

Soluble on expression in E. coli, soluble:
MSLANWVASSTVTADGHHLLGNPAAKLRLVEFVSYTCPHCSHFEIESEGQLKIGMVQPGKGAIEVRNFVRDPIDMTVALITNCVPPSRFFTLHTAFMRSQAQWIGPLANSTEAQRQRWFNGTFATRTRAIASDFRFYDFMAARGMDRSTLDRCLSNEALAKKLAAETDEAINQYNVSGTPSFMIDGILLAGTHDWASLRPQILARLNEGHHHHHH, MAMAVSGAVLSGLGSSFLTGGKRGATALASGVGTGAQRVGRKTLIVAAAAAQPKKSWIPAVKGGGNFLDPEWLDGSLPGDFGFDPLGLGKDPAFLKWYREAELIHGRWAMAAVLGIFVGQAWSGVAWFEAGAQPDAIAPFSFGSLLGTQLLLMGWVESKRWVDFFNPDSQSVEWATPWSKTAENFANYTGDQGYPGGRFFDPLGLAGKNRDGVYEPDFEKLERLKLAEIKHSRLAMVAMLIFYFEAGQGKTPLGALGL, MAHHHHHHMGTLEAQTQGPGSMTAQSGLLQGKRGLILGVANNRSIAWGIAKAAREAGAELAFTYQGDALKKRVEPLAEELGAFVAGHCDVADAASIDAVFETLEKKWGKLDFLVHAIGFSDKDELTGRYIDTSEANFTNTMLISVYSLTAVSRRAEKLMADGGSILTLTYYGAEKVMPNYNVMGVAKAALEASVKYLAVDLGPQNIRVNAISAGPIKTLAASGIGDFRYILKWNEYNAPLRRTVTIDEVGDVGLYFLSDLSRSVTGEVHHADSGYHVIGMKAVDAPDISVVKD, MTLSSAGGSRSHRHNGGHSERDVEIRILKDKVRSLTKEKISLQKELEYYKNEITKLLSPPYIEAVVLEVIDDNRVVVKSSTGPNLIVNVAAGVDARSLKPGAIVALNNRGSTIVDVLPGRYDPLVKAMEVEERPKVFFKDVGGLEEQIREIYEAVVLPIKNPHLFRELGIDPPKGVLLHGPPGTGKTLLAKAVAGETEATFIRVVGSELVNKFIGEGARLVREIFRLAREKAPSILFIDEIDAIASKRVDIGTSGDREVQRTMLQLLAELDGFDPLDNVKVIAATNRLDLIDPAVLRPGRFDRIIEVPLPSLRGRLEILGIHTRKAKMAPDVDLEAIAKLTEGFSGADLKAVVVEAGYNAIRRGSRVITMDDMIKAVEKVKAALDKRGGGDPFIRAQQKSGDDTIATVI, DVVVTQTPLSLPVSLGDQASISCRSSEVIVTRNGYTPIEWYLQKPGQSPKLLIYKAYKRFPGVPDRFSGSGSGTDFTLKISRVEAEDLGVYYCFDGSTVPPKFGGGTKLEIKRADAAPTVSIFPPSSEQLTSGGASVVCFLNNFYPKDINVKWKIDGSERQNGVLNSWTDQDSKDSTYSMSSTLTLTKDEYERHNSYTCEATHKTSTSPIVKSFNRDEC, GQGKLISVKTDVLDLTINTRGGDVEQALLPAYPKELNSTQPFQLLETSPQFIYQAQSGLTGRDGPDNPANGPRPLYNVEKDAYVLAEGQNELQVPMTYTDAAGNTFTKTFVLKRGDYAVNVNYNVQNAGEKPLEISSFGQLKQSITLPPHLDTGSSNFALHTFRGAAYSTPDEKYEKYKFDTIADNENLNISSKGGWVAMLQQYFATAWIPHNDGTNNFYTANLGNGIAAIGYKSQPVLVQPGQTGAMNSTLWVGPEIQDKMAAVAPHLDLTVDHHHHHH, GMPQPTVLLLARADLSPVGTEFTTGPIDAHDPFDSGRRTAFVDEQGIAAGIVEFGTALSVEAYPYTEMLVMHRGSVTLTSGTDSVTLSTGESAVIGRGTQVRIDAQPESLWAFCASTQASGPDKSGITALDRLALLTPSSPPDPSIMISPLPQCRSNNLFEDTASTLRIGVWDSTPYERISRPHKIHELMNLIEGRVVLSLENGSSLTVNTGDTVFVAQGAPCKWTSTGYVRKFYAVT, MINMTRKLYYEDAYLKEAKGRVLEIRDNAILLDQTIFYPTGGGQPHDRGTINGVEVLDVYKDEEGNVWHVVKEPEKFKVGDEVELKIDWDYRYKLMRIHTGLHLLEHVLNEVLGEGNWQLVGSGMSVEKGRYDIAYPENLNKYKEQIISLFNKYVDEGGEVKIWWEGDRRYTQIRDFEVIPCGGTHVKDIKEIGHIKKLKRSSIGRGKQRLEMWLE, MRVGIKVLGCPKNEADCEVLAGVLREGGHEIVFDVKDADVVVLDTCAFIEDAKRESIDEIFSFVDAKDQYGYKLVVKGCLVQRYYEELKKEIPEVDQWIGVADPEEIANAIENGTDLVPDQPETVYRYRKRIDLEERPYAYVKISDGCDRGCTFCSIPSFKGSLRSRSIEDITREVEDLLKEGKKEIILVAQDTTSYGIDLYRKQALPDLLRRLNSLNGEFWIRVMYLHPDHLTEEIISAMLELDKVVKYFDVPVQHGSDKILKLMGRTKSSEELKKMLSSIRERFPDAVLRTSIIVGFPGETEEDFEELKQFVEEIQFDKLGAFVYSDEEGTVAFNLKEKVDPEMAKRRQEELLLLQAEISNSRLDRFVGKKLKFLVEGKEGKFLVGRTWTEAPEVDGVVFVRGKGKIGDFLEVVIKEHDEYDMWGSVILEHHHHHH

Soluble on expression in E. coli, not soluble:
MWKIELSDWTDDEFKHIVDFFTNQNILQPLETRRVRYLEMLLFNRSFMIFFPNIIDNHPELFMPCKARPNPPDVPIAVRVFTFEDRKMVMRSELFKAINMKYPNRKPIEYNDVNGFLYAMELKDVFKNFGDLWHDIDFLNTPINRTNQKAVPIITSTGDFCIPGFRAFSEIFYLMSLIMRVFQKVKINSMHVLDDYIKILVSQLEPFLKSQCFITTDAFQKIEQEMCNYWKKFENIPVKDIRDVKRFTLNDLKKELKYLGITEAFPDVLVYADLAFPKLLESVSQNKLETIDMFEAVAECTYCCLLDKYLELVQVWFPQFGSHKMFCSILPPDPVDIFLGVSSSHKDLRRYIKGEDKENMKVKDTSNPQVMKNQRENPKSISKPEGNNSDTPTESGNSSSSKVESSMANCTDCSGVRKEMKTVQNVLKDVQTQLTTMKHKSEKFEKNMTGSVERSKKAEQRLQEEKLDHVKIQVEAKKKLELKLEEVETWKKQVSALWNCKSDHEALNTKLSKCVEKGKKLKEINEKVSNSRDQLSTKVFELKLQLNRELETAETLKNERKDSAKLRNEVNQLKDQLEREREIAYGLQEEASKLRVGTGKDVKRQILESENAQLRQEKQRREMEKSSLLETKMILSRQNEEQHKLIQSLMDQNHTEEGPSNHEDENGSYRKVLWKHQKIKDLYRKGEQQREAEEMVNKLISLNQHPEVQHISFLELESFKKQISDYLHTVEKNIQKIKRNDDFTNLEPLPEPPKMSDKFMRLYWNEMNKQPSTSDLPSAELDDTDQL, MGSDKIHHHHHHVRLWIPHVTRPTVQPASSYATYSVMPGATVKELADLIGVSTTAVRDHLVHLQAEGMVEVTSERSGPGRPRLVYSLSEKAQKSFPKQYDRLISTLLRELIELEGEGKVEQLLDRVSQRLASEYADRMAGSDVAARLNELRALLEQRGVPAEIDPEGDVLRLFACPYYDVAADYPEVCSMERRMIEYVLGEKLVLEDTIRAGAHNCRFVLRPQDIPLTMTPPAADPTTEV, MGSDKIHHHHHHMSIVLKAIRFHRETDLFTDLNFEFPTGALTVLTGDSGSGKSTLLSLIAGYAAMPYEGTILLNGHDDRNAAMQVKAQHVGMMFQNPDQQFTMRTLSGELSFALENLNLPVAEIQRRFAQAVALGETQALLDRDLSTLSGGEKQRAALTVLLAMDAPILLLDEPFASIDPTSRHLLIGKLGTLRDHGKTIVIAEHDLTDYADVADQLVALKNGELSRLPLATLTTLPTHFNLTQPRQATNKIFHLENVVCQQNHHILLQAPSWDFNDGITTLTGANGSGKSTLLRSMVQRHPYQGRMFLGQQRLRRRKRLYQTMTLAVQDAAKQFVTLTLADELAFGPALPAAVREKQQAALAYLGLAEKQTTSLYQLSEGQKKMVQLMTMLSLDLSFLLLDEPFSGLDDRACQYFAAWIKAKSATQAFLIVTHRLAPLAGISQQQVLLANHRLQVVQG, MTITDKNRLTGEADPRRTSLYGPPSMDALTERALHLARAGRALLGIVGEPGAGKSTFAEQLRARLEKERPGLAVTVSMDGFHLAQKVIEARGQAADKGTIDTFDADGFVALLRRTRAETGDTENTESTVWWPEFDRDLEDPVAGSIEVAPHHRLVIVDGNFLLSAQEPWRQVKGLLDETWFLDALPEPRRERLTRRYISYGFTPEAARAKTLGVDEDTSALIRSTVSRADLVIGEARESGGVSDC, MSLASIMFGVFVHALECSRPVGLVQAKLLLWTLTASIMVIILSEEGEVAEQLEFFPVQSPCRGICQSDERGFCRGCFRSRDERFNWNKMSDGEKQEVLRLCRQRLMRKLRANKPASSDEPEQPSLFEGHHHHHH, MSLDDAKLTASKEAKRIVIQSIQRVATETAIENSVTVFHIESDEIKGRIIGREGRNIRALEAATGVEIVVDDTPEAIVLSAFDPVRREIARLALHQLVTDGRIHPARIEEVVSKVRKQVEEEIIETGKRTTIDLGIHGLHPELIRIIGKMKYRSSYGQNLLQHARETANLCAVMASELGLNPKKAKRAGLLHDIGKVPDEEPELPHALLGMKLAEKYKEKPDICNAIGAHHDETEMTSLLAPIVQVCDAISGARPGARREIVEAYIKRLNDLEQLAMAYPGVTKTYAIQAGRELRVIVGADKIDDKQTESLSGEIAKKIQDEMTYPGQVKITVIRETRAVSFAKEGHHHHHH, MEKNLYDTNKLIELYKNKESMSGYTTILNVIEFPKALEFNLTVLYLSKSDYRLAIKISTELLKIGEPVPAVYTLISAIANKQRFKGCNAGQTFYAS, MSPWQHYQKDLTRDGFSHDPAQEIAVKALQRVYEDLTAAEEPNSLFGKLFTSFGLTSAPAPTKGLYLWGGVGRGKTYLMDTFFDTLPGNQKLRAHFHRFMHQLHLDLDALKGTRDPLLVIAKQMAAKYRVICFDEFFVSDITDAMLLGTLFQALFKEGVVLVATSNIIPDDLYKNGLQRARFLPAIALINQHCEVLNVDSGIDYRLRTLEQAEIYHHPLDEQADTNLLRYFGQLAPEAEISTEAIEIEGRAISIRQQAQGVLLADFRALCDGPRSQRDYMELARIYHTVLVSGIEQMGAFLTGDDIARRFLAMVDEFYERNVKLIVSAQVPLEDIYADGLLSFEFRRCRSRLIEMQSHDYLKSEHLPLEHHHHHH, MSDSQTLVVKLGTSVLTGGSRRLNRAHIVELVRQCAQLHAAGHRIVIVTSGAIAAGREHLGYPELPATIASKQLLAAVGQSRLIQLWEQLFSIYGIHVGQMLLTRADMEDRERFLNARDTLRALLDNNIVPVINENDAVATAEIKVGDNDNLSALAAILAGADKLLLLTDQKGLYTADPRRNPQAELIKDVYGIDDALRAIAGDSVSGLGTGGMSTKLQAADVACRAGIDTIIAAGSKPGVIGDVMEGISVGTLFHAQATPLENRKRWIFGAPPAGEITVDEGATAAILERGSSLLPKGIKSVTGNFSRGEVIRICNLEGRDIAHGVSRYNSDALRRIAGHHSQEIDAILGYEYGPVAVHRDDMITR, MGSDKIHHHHHHMINLEKYRIDLNEKKSTKYIQIFNHIKELIINKELVEHEKLPPIRKLSNFLQVNNTTIVKVYELLENEGYVYKIIGSGTFVSSLNSYKSGIDNRKNKIIVQREDLIHFDNGNPSNDMFPIDSFKNAVNMALSKDGSSIFEYDEGLGSEELREKMVEYLSDGNIKTTKENIQIISGAQQGIDIVCKGLISYSDVVFMEEPSYNGAIEVFKSRGAKIISIPMLDDGIDIGILKLKLEKIKPRLIYIMPNFQNPTGISYSTYKKKKLIELAEEHDFYIIEDDFISDFVFESKDNRTIRSYDDKNRVVYIKSFSKILMPGLRIGIVEMPNELLKKVLWAKYSSDISTPGLIQKSMYYYMNNFDWKNYLSHIEKIYTDKYKLAKNLINDKLSGKLKVRKSCGGINFFLELPRGYTSQAFTNFMLNKGVSMLPGTYFFDNLVDDRFFRINIARPSMEELEKGISIISDNIDEFFCEYKNKLDIKSNKLFY
